Columns and labels:
[1] = target: T1, HMGB1 full-length (disulfide form) (UniProt P09429 1-215); experiment: fluorescence anisotropy; 200 mM NaCl; value only in figure; affinity lower than Δ39; 10 mM potassium phosphate pH 7.4, 200 mM NaCl (32G) or 150 mM NaCl (J1), 4 nM FAM-DNA, 25 °C; conditions: protein: recombinant; label: 5'-FAM; G-quadruplex
[2] = target: HMGB1 Δ40 (disulfide form) (UniProt P09429 1-175, del176-215); experiment: fluorescence anisotropy; 200 mM NaCl; value only in figure; as strong as Δ39; 10 mM potassium phosphate pH 7.4, 200 mM NaCl (32G) or 150 mM NaCl (J1), 4 nM FAM-DNA, 25 °C; conditions: protein: recombinant; label: 5'-FAM; G-quadruplex
[3] = target: HMGB1 Δ44 (disulfide form) (UniProt P09429 1-171, del172-215); experiment: as above; conditions: protein: recombinant; label: 5'-FAM; G-quadruplex
[4] = target: T2, HMGB1 Δ39 (disulfide form) (UniProt P09429 1-176, del177-215); experiment: fluorescence anisotropy; 200 mM NaCl; value only in figure; affinity higher than full-length; 10 mM potassium phosphate pH 7.4, 200 mM NaCl (32G) or 150 mM NaCl (J1), 4 nM FAM-DNA, 25 °C; conditions: protein: recombinant; label: 5'-FAM; G-quadruplex
[5] = target: T2, HMGB1 Δ39 (disulfide form); experiment: fluorescence anisotropy; 150 mM NaCl; value only in figure; affinity higher than full-length; 10 mM potassium phosphate pH 7.4, 200 mM NaCl (32G) or 150 mM NaCl (J1), 4 nM FAM-DNA, 25 °C; conditions: protein: recombinant; label: 5'-FAM on J1A; four-way junction of 4 x 16-mer strands
[6] = target: T1, HMGB1 full-length (disulfide form); experiment: fluorescence anisotropy; 150 mM NaCl; value only in figure; affinity lower than Δ39; 10 mM potassium phosphate pH 7.4, 200 mM NaCl (32G) or 150 mM NaCl (J1), 4 nM FAM-DNA, 25 °C; conditions: protein: recombinant; label: 5'-FAM on J1A; four-way junction of 4 x 16-mer strands
TLR4•MD-2 complex = target: T3, TLR4•MD-2 complex (UniProt O00206 24-631; Q9Y6Y9 19-160); experiment: SPR; TLR4•MD-2 complex immobilised on a CM5 chip by amine coupling (1200 RU); HMGB1 proteins injected at 30 μl/min, 25 °C; 10 mM Hepes (pH 7.4), 150 mM NaCl, 3 mM EDTA, 0.005% v/v Tween-20; 1:1 binding model; Biacore T-100; three independent experiments; conditions: both partners purified
T3 construct: toll-like receptor 4 (TLR4) of the bought TLR4•MD-2 complex; MD-2 of the bought TLR4•MD-2 complex; also called toll-like receptor 4 • MD-2 complex; source: bought: R&D Systems (catalog no. 3146-TM-050), lyophilized
T3 sequence (O00206 24-631, chain 1 of 2): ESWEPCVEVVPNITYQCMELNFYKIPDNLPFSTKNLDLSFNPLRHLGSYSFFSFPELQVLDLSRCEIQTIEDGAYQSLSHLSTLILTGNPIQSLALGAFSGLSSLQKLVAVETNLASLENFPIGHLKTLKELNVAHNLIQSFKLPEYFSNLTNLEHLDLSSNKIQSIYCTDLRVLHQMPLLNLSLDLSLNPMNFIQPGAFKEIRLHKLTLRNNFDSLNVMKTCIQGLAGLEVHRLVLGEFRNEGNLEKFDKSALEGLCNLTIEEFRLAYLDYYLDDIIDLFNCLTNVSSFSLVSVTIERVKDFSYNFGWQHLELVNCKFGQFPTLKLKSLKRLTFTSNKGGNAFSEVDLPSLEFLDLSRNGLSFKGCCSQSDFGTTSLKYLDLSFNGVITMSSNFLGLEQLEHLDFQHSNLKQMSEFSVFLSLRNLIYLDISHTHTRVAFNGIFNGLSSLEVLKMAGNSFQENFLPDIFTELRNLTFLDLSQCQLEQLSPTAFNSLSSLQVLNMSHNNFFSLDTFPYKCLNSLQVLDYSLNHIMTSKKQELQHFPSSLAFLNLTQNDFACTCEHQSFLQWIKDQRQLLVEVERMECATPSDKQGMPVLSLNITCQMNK
T3 sequence (Q9Y6Y9 19-160, chain 2 of 2): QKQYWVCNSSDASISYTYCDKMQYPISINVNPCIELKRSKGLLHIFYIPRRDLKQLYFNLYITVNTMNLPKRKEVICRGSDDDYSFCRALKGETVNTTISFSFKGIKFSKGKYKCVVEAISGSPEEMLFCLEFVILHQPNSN

AGGGCGGTGTGGGAAGAGGGAAGAGGGGGAGG (structured_DNA) [FAM-32G G-quadruplex]: binds [1]; binds [2]; binds [3]. AGGGCGGTGTGGGAAGAGGGAAGAGGGGGAGG (structured_DNA) [FAM-32G G-quadruplex]: binds [4].

B1: Holliday junction J1 (J1A/J1B/J1C/J1D) (structured_DNA)
DNA 1: CGCAATCCTGAGCACG
DNA 2: CGTGCTCACCGAATGC
DNA 3: GCATTCGGACTATGGC
DNA 4: GCCATAGTGGATTGCG
B1: binds [5]; binds [6].

B2: Δ39 variant of disulfide HMGB1 (lacks the C-terminal 39 residues) (domain or fragment, UniProt P09429 1-176, looked up)
chain: MGKGDPKKPRGKMSSYAFFVQTCREEHKKKHPDASVNFSEFSKKCSERWKTMSAKEKGKFEDMAKADKARYEREMKTYIPPKGETKKKFKDPNAPKRPPSAFFLFCSEYRPKIKGEHPGLSIGDVAKKLGEMWNNTAADDKQPYEKKAAKLKEKYEKDIAAYRAKGKPDAAKKGVV
modifications: disulfide bond between Cys23 and Cys45
notes: HMGB1 of GenBank CAG33144.1 with a stop codon at K177; lacks residues 177-215, ends at V176; also called Δ39 product; source: E. coli BL21(DE3), purified (SP-FF cation exchange, Resource S cation exchange, Sephacryl S-100 HR SEC)
Binder B2 has a Kd (TLR4•MD-2 complex) of 25 nM.

B3: full-length (FL) disulfide HMGB1 protein (high-mobility-group-box-1, oxidized) (natural protein, UniProt P09429 1-215, looked up)
chain: MGKGDPKKPRGKMSSYAFFVQTCREEHKKKHPDASVNFSEFSKKCSERWKTMSAKEKGKFEDMAKADKARYEREMKTYIPPKGETKKKFKDPNAPKRPPSAFFLFCSEYRPKIKGEHPGLSIGDVAKKLGEMWNNTAADDKQPYEKKAAKLKEKYEKDIAAYRAKGKPDAAKKGVVKAEKSKKKKEEEEDEEDEEDEEEEEDEEDEDEEEDDDDE
modifications: disulfide bond between Cys23 and Cys45
notes: 215 residues (D/E repeats are residues 186-215); also called FL HMGB1; intact disulfide HMGB1; source: E. coli BL21(DE3), purified (SP-FF cation exchange, Resource-Q anion exchange, Sephacryl S-100 HR SEC)
In the case of B3, the Kd (TLR4•MD-2 complex) is reported as 367 nM.
